The test system of test [1] is pressure overload hypertrophy and heart failure. The test is described as follows: Transaortic banding (TAB) pressure overload in JP2NT-OE mice. In kind it is in vivo, mouse. How it is done: Animal experiments were performed in accordance with the Guide for the Care and Use of Laboratory Animals (National Institutes of Health publication 85-23, revised 1996) and were approved by the Institutional Animal Care and Use Committee at the University of Iowa. Cardiac specific JP2NT overexpression vector was constructed by subcloning mouse JP2NT cDNA (Guo et al., 2015) into a tet-operated αMHC transgenic vector, as described previously (Guo et al., 2014). The oocyte injection of transgenic vectors was carried out by University of Iowa transgenic core. The injected oocytes were transferred to pseudopregnant recipients. Transgenic offsprings were backcrossed with C57BL/6J mice for >9 generations to generate transgenic mice in a C57BL/6J background. These transgenic mice were crossed with αMHC-tTA (C57 background) (Guo et al., 2014) to generate double transgenic mice (JP2NT-OE) carrying both αMHC-JP2NT and αMHC-tTA. The non-overexpression single transgenic littermates were used as control. PCR was used to determine the genotype of transgenic mice. Nine to 10-wk-old male JP2NT-OE mice and their control littermates were subjected to pressure overload by transaortic banding (TAB) surgery, as described (Guo et al., 2014). Transthoracic echocardiograms were performed with conscious mice in the University of Iowa Cardiology Animal Phenotyping Core Laboratory, using a Vevo 2100 Imager (Visual Sonics), as described previously (Cheng et al., 1993).

Test [2] deals with cardiac hypertrophy. Nature of the test: Angiotensin-induced cardiac hypertrophy in JP2NT OE mice. It is filed as in vivo, mouse. How it is done:
A transgenic mouse line with cardiac specific overexpression of an exogenous protein sequence corresponding to JP2NT was prepared. JP2NT (JP2(1-565)) transgenic mice were generated based on a tet-off system. The Flag and HA tagged JP2NT cDNA was cloned downstream of tet-operated alpha-MHC promoter, enabling the cardiac specific and conditional expression of JP2NT (FIG. 9A). The plasmid (αMHC-JP2NT) was delivered by pronuclear injection into fertilized eggs to make transgenic founders. The transgenic mouse lines were backcrossed to C57 background for 9 generations. αMHC-JP2NT mice have been crossed with αMHC-tTA mice to generate double transgenic αMHC-tTA-JP2NT mice (noted as JP2NT OE mice). This allows for inducible and cardiac-specific expression of JP2NT, in which tTA binds to tet-operon and activates transcription of JP2NT. Thus, the expression and nuclear localization of JP2NT in transgenic mice have been confirmed.

Test [3] concerns RNA polymerase II (RPB1) and TATA-box binding protein (TBP). Nature of the test: Crosslinking-reversal co-IP in 293T cells. Particulars: JP2NT-transfected 293T cells. The protocol:
Cells were first crosslinked by 1% formaldehyde for 10 minutes at RT before quenching by 0.75 M Tris. After washing with PBS, cells were lysized using RIPA buffer and sonication was applied to breakdown chromatin and shear DNA. Anti-HA resin (sigma) was used to pull down HA tagged protein complexes. The pulled-down protein complexes were boiled at 95° C. for 10 minutes to reverse the formaldehyde induced crosslinking between proteins. Western blot was used to assay the presence of bait and prey proteins.
TBP specifically binds to TATA boxes, eukaryotic core cis-regulatory elements localized at transcription start site. […] This interaction was abrogated by mutation of the TATA box elements (FIGS. 11E&G and 17B). It was concluded that JP2NT is a DNA binding protein, binding to consensus TATA box represented as TATAA(A/T) or TATATA (FIG. 11F).

For test [4], the system named is cultured adult murine cardiomyocytes. The test is described as follows: Affymetrix Genechip analysis of cultured cardiomyocytes. It is filed as cell-based, mouse. The protocol:
Genecarrior-1 (Epoch Lab) was used to transfect plasmids into HEK293T cells. Isolation and culture of cardiomyocytes were performed as described previously (Guo et al., 2015). Adenoviruses were applied at a multiplicity of infection (MOI) of about 100, which results in transfection of almost all cells as confirmed by immunostaining of eptiope tags.
Microarray assay was performed by Affymetrix GeneChip® Mouse Genome 430 2.0 according to the standard procedure of cRNA preparation and Genechip hybridization. The R package limma (version 3.22.7) (Ritchie et al., 2015) was used for processing microarray data and identifying differentially expressed genes (the cutoff of significance was p value<0.01). David (Huang et al., 2009) was used for gene enrichment (GO) analysis. Ingenuity pathway analysis (IPA, Qiagen) was used for pathway analysis.

Test [5] deals with cardiac transcription profile. Nature of the test: RNA-Seq of myocardium of JP2NT-OE mice. In kind it is in vivo, mouse. How it is done:
Illumina TruSeq Stranded mRNA Library Prep Kit was used to prepare the sequencing library for myocardium samples. Sequencing was performed by Illumina HiSeq 2500 platform (2×125 bp paired-end). Kallisto (0.42.5) software (Bray et al., 2016) was used to quantify transcript abundance of mouse transcriptome (Grcm38). Sleuth (0.28.1) software (Pimentel et al., 2018) was used to investigate the differential expression of transcripts between groups (the cutoff of significance was p value<0.01).

For test [6], the system named is HEK293T cells. Nature of the test: Subcellular localization by confocal imaging. In kind it is cell-based. To be noted: HEK293T cells and cardiomyocytes. The protocol: Immunofluorescence was done as described previously (Guo et al., 2015). A Zeiss confocal microscope LSM510 was used for recording cell images.
To Investigate the molecular mechanism of JP2NT nuclear importation, an in silico analysis (Sigrist et al., 2002) was performed. […] These domains are evolutionarily conserved among species (FIGS. 18B-C). […] Indicating this NLS is Indispensable for nuclear localization of JP2NT. A fusion protein containing mCherry and the bNLS peptide with the ARR was imported into nuclei (FIG. 16D).

Where [7] appears, read: after TAB, relative to controls.

B1: JP2NT: shorter form of Junctophilin-2 including the first 565 amino acids of N-terminus of JP2 (protein, UniProt Q9BR39 1-565, looked up, fragment)
chain: MSGGRFDFDDGGAYCGGWEGGKAHGHGLCTGPKGQGEYSGSWNFGFEVAGVYTWPSGNTFEGYWSQGKRHGLGIETKGRWLYKGEWTHGFKGRYGIRQSSSSGAKYEGTWNNGLQDGYGTETYADGGTYQGQFTNGMRHGYGVRQSVPYGMAVVVRSPLRTSLSSLRSEHSNGTVAPDSPASPASDGPALPSPAIPRGGFALSLLANAEAAARAPKGGGLFQRGALLGKLRRAESRTSVGSQRSRVSFLKSDLSSGASDAASTASLGEAAEGADEAAPFEADIDATTTETYMGEWKNDKRSGFGVSERSSGLRYEGEWLDNLRHGYGCTTLPDGHREEGKYRHNVLVKDTKRRMLQLKSNKVRQKVEHSVEGAQRAAAIARQKAEIAASRTSHAKAKAEAAEQAALAANQESNIARTLARELAPDFYQPGPEYQKRRLLQEILENSESLLEPPDRGAGAAGLPQPPRESPQLHERETPRPEGGSPSPAGTPPQPKRPRPGVSKDGLLSPGAWNGEPSGEGSRSVTPSEGAGRRSPARPATERMAIEALQAPPAPSREPEVALYQG
modifications: GST or adenoviral forms
notes: shorter form of Junctophilin-2 including the first 565 amino acids of N-terminus of JP2
Take B1: the “cardiac function (ejection fraction)” value in test [1] (3 weeks after TAB, relative to controls) is listed as “improved cardiac function”. Further, in test [1] (JP2NT OE mice), the “pressure overload induced heart failure” value was “resistant”. Besides, in test [1] (setting [7]), the “heart weight/body weight ratio” value is reported as “lower” and the “lung edema (lung weight/body weight ratio)” value is listed as “reduced lung edema”. In test [1] (baseline, no TAB), the “cardiac morphology or function at baseline” value was “no effect”. The “Angiotensin-li induced cardiac hypertrophy” value in test [2] is recorded as “resistant”. The “association with RNA polymerase II (RPB1) and TBP” value in test [3] is on record as “associates”. The “differentially expressed genes mapped to genomic loci bound in ChIP-seq” value in test [4] was “about 74%”. The “ERK/MAPK, NF-κB, TGF-β and integrin signaling pathways (Ingenuity Pathway Analysis)” value in test [4] (IPA of differentially expressed genes) was “predicted to be inhibited”. For the same molecule, in test [4] (vs Ad-Empty control), the “significantly induced known genes (p<0.01)” value turned out to be 574 genes and the “significantly repressed known genes (p<0.01)” value is reported as 1996 genes. In test [5] (TAB), the “ERK, TGF-β, CREB and NFκ-B signaling pathways (IPA)” value is reported as “predicted inhibition”; the “known genes of negatively influenced transcripts” value amounted to 481 genes; the “known genes of positively influenced transcripts” value is on record as 476 genes; the transcripts negatively influenced was found to be 540 transcripts. This molecule yielded a transcripts positively influenced in test [5] (TAB) of 542 transcripts. The “transcripts significantly different in response to cardiac stress” value in test [5] (TAB, linear regression model, p<0.01) was 1082 transcripts. Besides, in test [5] (TAB, p<0.01), the “known genes from which the significantly different transcripts derive” value is on record as 954 genes. Moreover, the “significantly altered genes (p<0.01) at baseline” value in test [5] (baseline, relative to control littermates) is on record as 49 genes. For the same molecule, in test [6], the “nuclear localization / nuclear importation” value was “highly enriched in nuclei”.
